Results: the nanobody polyreactivity screen of Harvey et al. (2022)

Assay: yeast display, Sf9 membrane polyspecificity reagent, FACS + sequencing; frameworks hold sequencing errors
Summary of the method: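 Nanobodies came from a synthetic yeast display library in Saccharomyces cerevisiae BJ5465, induced with galactose for 36–48 hours and stained for 1 hour at 4 °C with 10% biotinylated, detergent-solubilized Sf9 membrane reagent. Cells were enriched on streptavidin microbeads and then FACS-sorted, with low and high (top ~1%) gates set on anti-HA fluorescence for expression and streptavidin fluorescence for reagent binding. Each polyreactivity label reflects the gate a clone came from. Genes were amplified by colony PCR, sequenced by MiSeq 2 × 250 and filtered by CDR length.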

| Sequence | polyreactivity (PSR sort gate) |
| --- | --- |
| QVQLVESCGGLVHAGGSLRLSCAASGRSFYRYAMGWYRKAPGKERELVAAISSGGSTYYADSVKGRFTISRDNANNTDYLQMNSLKPEDTAVYYCNADYGRRIHMDYWGQGTQVTVSS | low polyreactivity |
| QVQLVESCGGLVQAGASLRLSCAASGSTFKYYTMGWYIQSPGKERELVAAISFSGARTYYADSVKGRFTISRDNAKNNVYLQMNSLKPEDTAVYYCAKRATWYTVPREGYWGQGTLVTVSS | high polyreactivity |
| QVQLVESCGGLVQAGGSLRLICAASGRTFRSYTMGWYRQAPGKERELVAAISYNCGSTYYADSVKGRFTISRDNAKNTVYLQMNSLKPEDTPVYYCAVYTIYGFYYWGQGTQVSVSS | high polyreactivity |
| QVQLVESCGGLVQAGGSLRLICDDSGNTFNRYAMGWYRQAPGKERELVADITSGGRTYYAYSVKGRFTISRDNAKNTVYLQMNSVKPVDTAVYYCAGEWWDLGNFYWSYRYDYWGQCTQVTVSS | high polyreactivity |
| QVQLVESCGGLVQAGGSLRLRCAASRSIFDSYAMGWYRQAPGKERELVASISYRGGSTYYADSVKGRFTISRDIAKNTVYLQMNSLKPEDTAVYYCAATPGYHYRSWRYYYWGQGNQVTVSS | high polyreactivity |
| QVQLVESCGGLVQAGGSLRLSCAASGFTFYYYVMGWYRQAPGQERELVAAISRSGGNTYYADSVKGRFTISRDNAKNTVYLQMNRLKPEDTAVYYCNAVQYYPVYYWGQGTQVTVSS | high polyreactivity |
| QVQLVESCGGLVQAGGSLRLSCAASGITFGSYAMGWYRQAPGKERELVAAITTGTSTNYADSVKGRFTISRDNAKNTVYLQMNSLKPEDTAVYYCNAEKYNFIYAYEYWGQGTQVTVSS | low polyreactivity |
| QVQLVESCGGLVQAGGSLRLSCAASGLIIRWYAMGWYRQAPGKERELVAAITRAGSTYYADSVKWRFTISRDNAKNTVYLQMNSLNPEDTAVYYCAADTNWSPGYIMYYRSDYWGQGTQVTVSS | low polyreactivity |
| QVQLVESCGGLVQAGGSLRLSCAASGLTLGDNAMGLYRQAPGKERELVAAITSGSSTDYADSVKGRFTISRDNAKNTVYLQMNSLKPEDTAVYYCAKRIYRYQYRPENYWGQGTQVTVSS | low polyreactivity |
| QVQLVESCGGLVQAGGSLRLSCAASGRIFLVYAMGWYRQAPGKERELVAAISWSTGSTYYADSVKGRFTISRDNAKNTVYLQMNSLKPEDTAVYYCAAEPELDEFEHDYWGQGTQVTVSS | low polyreactivity |
| QVQLVESCGGLVQAGGSLRLSCAASGRIIRKYDMGWYRQAPGKERELVAAISGTGITYYADSVKGRFTISRDNAKNTVYLQMNSLKPEDTAVYYCARGSKPRAWSWAYPSATSIYDYLGQGTQVTVSS | low polyreactivity |
| QVQLVESCGGLVQAGGSLRLSCAASGRTFNSYAIGWYRNAPGKERELVAAISWIGGSTYYADSVKGRFTISRDNAKNTVYLQMNSLKPEDTAVYYCAADSYRFYSGYYYWGQGTQVTVSS | low polyreactivity |
| QVQLVESCGGLVQAGGSLRLSCAASGSIFGDYVMGWYRQAPGKERELVAAINRGGSTYYADSVKGRFTISRDNAKNTVYLQMNSLKPEDTAVYYCAAGYPSWYYGYPYDSWGQGTQVTVSS | low polyreactivity |
| QVQLVESCGGLVQAGGSLRLSCAASGSIFSGYAMGWYRQAPWKERELVAAITWRAASTYYADSVTGRFTISRDNAMNTVYLQMNSLKPEDTAVYYCAKEGWPKPAFYYCGQGTQVTVSS | low polyreactivity |
| QVQLVESCGGLVQAGGSLRLSCAASGSIFSRNTMGWYRQAPCKERELVAGISSSGSRTYYADSVKGRFTISRDNSKNTVYLQMNSLKPEYTAVYYCAAEHQRSRGRRYYIGYDYWGQGTQVTVSS | low polyreactivity |
| QVQLVESCGGLVQAGGSLRLSCAASGSTFSLYGMGWYRQAPAKERELVATITYSGGRTYYADSVKGRFTISLDNAKNTVYLQLNSLKPEDTAVYYCAARLAPLYRTYYYWGQGTQVTVSS | low polyreactivity |
| QVQLVESCGGLVQAGGSLRLSCAASGSTFVYNSMGWYRQAPGKEREMVDAITWRGSTYYADSVKGRFTISRDNAKNTVYLQMNSLKPEDTAVYYCAARFSNLPEGVTYYYWGQGTQVTVSS | high polyreactivity |
| QVQLVESCGGLVQAGGSLRLSCAASGYTFSFNAMGWYRQAPGKESELVADINLSGGYTYYADSVKGRFTISRDNAKNTVYLQINSLKPEDTAVYYCAADLYDYWTEGYAFLFEYWGQGTQVTVSS | low polyreactivity |
| QVQLVESCGGLVQARGSLRLSCAACGRIFIRYALGWYSQAPGTERELVAAITRGGSTYYADSVKGRFTISRDNAKITVFLQMNSVKPEDTAVYYCAGRVGYPYYYWGQGTEVTVSS | high polyreactivity |
| QVQLVESCLGLVQAGGSLRLSFADSGIIIMFYSMGWYRQATGKERELLAAISASGGRTYYADSVKGRFTISRDNAKNTVYLQMNSLKPEDTAVYYCARLLPTPGKPILDYWGQGTQVTVSS | low polyreactivity |
| QVQLVESDGGLVQAGGSHPLSSAASGRIIYRYTMGWYRQAPGKERELVAAIRYRTSSTYYADSVKGRFTISRDNAKNTVYLQMNSLKPEDTAVYYCAAYDGLRPHRMDYWGQGTQVTVSS | low polyreactivity |
| QVQLVESEGGLVQAGGSLRISCAASGRNFRTYDMGWYRQAPGKERELVAAISEEGGYTYYADSVKGRFTISRDNAKNTVYLQMNSLKPEDTAVYYCAKDRPGPLRWWFLYGYWGQGTQVTVSS | low polyreactivity |

| Sequence | polyreactivity (PSR sort gate) |
| --- | --- |
| QVQLVESGAALVQAGGSLRISCAASGSTLDTNAMGRYRPAPGKERELVAAITFSGGTTYYADSVKGRFTISRDNAKNTVYLQMNSLKPEDTAVYYCAAEIWLEYVGYDYWGQGTQVTVSS | high polyreactivity |
| QVQLVESGAGIVQAGGSLRVSSAASGSIFHSYAMGWYRQEPGKERELVAGITYRTGSTYYADSVKGRVTNSRDNAKNTVYFQMNSLKPEDTAVYYCAAGYYSRYFEAFEYYYWGLGTQVTVSS | high polyreactivity |
| QVQLVESGAGLGQAGGSLRLSCAASGYTFPSNAMGWYRQAPGKERELVAAISSGGRTNYADSVKGRFTISRDNAKNTVYLQMNSLKPEVTAVYYCNADGGPGYPRAYDYWGPGTQVTVSS | low polyreactivity |
| QVQLVESGAGLLHAGRSLRLSCPASGRIFRGNAMGCYRQAPGKERELVASISTSGVRTFYADSVKGRFTISRDNAKNTFYLQMNSLKHEDTAVYYCNKRDRYRLYGYNYCGQGTQVTVSS | high polyreactivity |
| QVQLVESGAGLVHAGGSLRLSCAASGLIYVNAMGWYRQAPGKERDFVAAITYSTGSTYYADSVKGRYTISRDNAKNTVYLQMNSLKPEDSAVYYCATDEHSSGRTPYDYWVQGTQVTVSS | low polyreactivity |
| QVQLVESGAGLVKAGCSLRISCAASGSSFVTYDMGWYRQAPGKERELVAGISGSGSTNYADSVKGRFTISRDNAKNTVYLQMNSLKPEDTAVYYSAAEYEYLWSQYLTDYGYDYWGQGTQVTVSS | low polyreactivity |
| QVQLVESGAGLVQAAASLRLSCAASGRTFIYYSMGWYRQAPGKEREFVAIISWNGTSTNYADSVKGRFTISRDNAKNTVYLQMNSLKPEDTAVYYCAASFWTDYYRYDYWGQGTQVTVSS | low polyreactivity |
| QVQLVESGAGLVQAGGILRLSCAASGLTFSRYTMGWSRQAPGKERELVAAITSSGGSTYYADSVKGRFTISRDNAKNTVSLEMNSLKPEDTAVNYCAARYPGTRGDGYWGLGTQVTVSS | high polyreactivity |
| QVQLVESGAGLVQAGGRLRLSCAASGSIFWRYAMGWSIQAPGKERELVAAINYSTTRTYYADSVKGRFTISRDNAKNTVYLQMNSLKPVDTAVYYCAADSRVDEGEYWGQGTQVTVSS | high polyreactivity |
| QVQLVESGAGLVQAGGRLRLSCAASGSTFGYYAMGLYTQAPGTERELVAVITTRVGSTYYADSVKGRFTISRDNAKNTVYLQMNSLKPEDTAVYYCNASGRTRSYSGSFSKHYYWGQGTKVTVSS | high polyreactivity |
| QVQLVESGAGLVQAGGSLLLSCAASGYIFDVYDMGWYRQAPGKERELVAAITDYADSVKGRFTISRDNAKNTVYLQMNSQKPEDTAVYYCAADTDVLKGTTGFEYWGQGTQVTVSS | low polyreactivity |
| QVQLVESGAGLVQAGGSLPLSCAASGFTFTIYAMGWYRQAPGKERELVATISGRAGRTYYADSVKGRFTISRDNAKNTVYLQMNSMKPEDTAGYYCNAGQWRYTGLYYYWGQGTQVTVSS | high polyreactivity |
| QVQLVESGAGLVQAGGSLRFSCAASGSIFDHYVMGWYRQAPGKEREFVAAIPSGDRTNYADSVKGRFTISRDNANNTVYLQMNSLKPEDTAVYYCNADYQYYFYYTTCYYDYDYWGQGTPVTVSS | low polyreactivity |
| QVQLVESGAGLVQAGGSLRLICAASGSTFVKNVMGCYRQAPGKERELVAGITRGGSTYYADSVKGRFTISRDHAKNSVYLQMNSLYPDDTAVYYWAKRYAWELDYWGQGSQVTVSS | high polyreactivity |
| QVQLVESGAGLVQAGGSLRLICAATGFTLGSNAMGSYRKAPGKERELVAAISKSGGSTYYADSVKGRFTISRDNAKNTVYLQMNSLKPDDTAVYYCAARYLYQGYRYDYWGQGTQVTVSS | high polyreactivity |
| QVQLVESGAGLVQAGGSLRLSCAASGFNFRENAMGWYRQAPGKERELVAAISRSGGSTYYADSVKGRFTISRDNAKNTVYLQMNSLKPEDTAVYYCAAPKDYDYWGQGTKVTVSS | low polyreactivity |
| QVQLVESGAGLVQAGGSLRLSCAASGFTFYPYAMGLYRQAPGKERELVAAINSGGSTYYADSVKGRFTISRDNAKNTVYLQMNSLKPEDTAVYYCAAYGKRGAVAFYYWGQGTQVTVSS | high polyreactivity |
| QVQLVESGAGLVQAGGSLRLSCAASGLTFALYAMGGYRQAPGKERELVAAIDWSGGITYYADSVKGRFTISRDNAKNTVYLQLNSLKPEDTAVYYCAARPSTFKYKYGYWGQGTQVTVSS | high polyreactivity |
| QVQLVESGAGLVQAGGSLRLSCAASGLTFDYYAMGWYRQAPGKEREFVAAITRRGGGTYYADSVKGRFTISRDNAKNTVYLQMNSLKPEDTAVYYCAAYGCGNRWYSRFDYWGQGTQVTVSS | high polyreactivity |
| QVQLVESGAGLVQAGGSLRLSCAASGRIFGYYAMGWYRQAPGKERELVAAITRGGSTYYADSVKGRFTISRDNAKHTVYLQMNSLKPEDTAVYFCAANISGLVKYENDYWGQGTQLTVSS | low polyreactivity |
| QVQLVESGAGLVQAGGSLRLSCAASGRIFRVYAMGWYRQAPGQERELVAAITSGGTTYADSVKGRLTISRDNAKKTVYLQMNILKPEDTAVYYCAARYYIHRGYDYDYWGQGTQVTVSS | high polyreactivity |
